Assay results as given in paper PMC6770189, “Multipoint TvDAAO Mutants for Cephalosporin C Bioconversion” (International Journal of Molecular Sciences, 2019).
Where a chain is given by its changes, count along the chain named. In names and notes the source's numbering stands.

B1: TvDAAO (Trigonopsis variabilis; C108F/C298Q/E32R/F33D/F54S/M156L) (protein)
chain: MAKIVVIGAGVAGLTTALQLLRKGHEVTIVSRDTPGDLSIGYTSPWAGANWLTSYDGGKLADYDAVSYPILRELARSSPEAGIRLISQRSHVLKRDLPKLEVAMSAIFQRNPWFKNTVDSFEIIEDRSRIVHDDVAYLVEFRSVCIHTGVYLNWLLSQCLSLGATVVKRRVNHIKDANLLHSSGSRPDVIVNCSGLFARFLGGVEDKKMYPIRGQVVLVRNSLPFMASFSSTPEKENEDEALYIMTRFDGTSIIGGCFQPNNWSSEPDPSLTHRILSRALDRFPELTKDGPLDIVREQVGHRPGREGGPRVELEKIPGVGFVVHNYGAAGAGYQSSYGMADEAVSYVERALTRPNL
notes: FAD-containing; no tag mentioned
B2: TvDAAO (Trigonopsis variabilis; C108F/C298G/E32R/F33D/F54S/M156L) (protein)
chain: B1 chain with Q298G
notes: as for B1
B3: TvDAAO (Trigonopsis variabilis; C108F/C298N/E32R/F33D/F54S/M156L) (protein)
chain: B1 chain with Q298N
notes: as for B1
B4: TvDAAO (Trigonopsis variabilis; C108F/E32R/F33D/F54S/M156L) (protein)
chain: B1 chain with Q298C
notes: as for B1
B5: TvDAAO (Trigonopsis variabilis; C108F/E32R/F33D/F54S) (protein)
chain: B1 chain with L156M, Q298C
notes: as for B1
B6: TvDAAO (Trigonopsis variabilis) (protein)
chain: B1 chain with R32E, D33F, S54F, F108C, L156M, Q298C
notes: as for B1
B7: TvDAAO (Trigonopsis variabilis; C108F/E32R/F33D) (protein)
chain: B1 chain with S54F, L156M, Q298C
notes: as for B1
B8: TvDAAO (Trigonopsis variabilis; C108F/F54S/M156L) (protein)
chain: B1 chain with R32E, D33F, Q298C
notes: as for B1

Tests used:
TvDAAO = target: T1, TvDAAO (Trigonopsis variabilis, UniProt Q99042); test: horseradish peroxidase / ABTS coupled assay, […] nm; assay type: biochemical; conditions: 0.05 M potassium phosphate pH 8.0, 30 °C, air saturated; read-out: wt-TvDAAO / KM
T1 construct: gene DAO1; FAD-containing; no tag mentioned

[1] = substrate: [H][C@]12SCC(COC(C)=O)=C(C(=O)O)N1C(=O)[C@H]2NC(=O)CCC[C@@H](N)C(=O)O; test: CPC consumption by HPLC, initial rates; assay type: biochemical, Trigonopsis variabilis; conditions: 0.1 M potassium phosphate pH 8.0, 30 °C, air saturated
From the text: CPC consumption by HPLC, initial rates on TvDAAO

purified protein [2] = substrate: CSCC[C@@H](N)C(=O)O; test: purified protein; assay type: biochemical, Trigonopsis variabilis; conditions: 0.05 M potassium phosphate pH 8.0, 30 °C, air saturated
purified protein [3] = substrate: CC(C)[C@@H](N)C(=O)O; test: purified protein; conditions: 0.05 M potassium phosphate pH 8.0, 30 °C, air saturated
purified protein [4] = substrate: C[C@@H](N)C(=O)O; test: purified protein; conditions: 0.05 M potassium phosphate pH 8.0, 30 °C, air saturated
purified protein [5] = substrate: NC(=O)C[C@@H](N)C(=O)O; test: purified protein; conditions: 0.05 M potassium phosphate pH 8.0, 30 °C, air saturated
purified protein [6] = substrate: CC(C)C[C@@H](N)C(=O)O; test: purified protein; conditions: 0.05 M potassium phosphate pH 8.0, 30 °C, air saturated

T1 sequence (Q99042 whole entry): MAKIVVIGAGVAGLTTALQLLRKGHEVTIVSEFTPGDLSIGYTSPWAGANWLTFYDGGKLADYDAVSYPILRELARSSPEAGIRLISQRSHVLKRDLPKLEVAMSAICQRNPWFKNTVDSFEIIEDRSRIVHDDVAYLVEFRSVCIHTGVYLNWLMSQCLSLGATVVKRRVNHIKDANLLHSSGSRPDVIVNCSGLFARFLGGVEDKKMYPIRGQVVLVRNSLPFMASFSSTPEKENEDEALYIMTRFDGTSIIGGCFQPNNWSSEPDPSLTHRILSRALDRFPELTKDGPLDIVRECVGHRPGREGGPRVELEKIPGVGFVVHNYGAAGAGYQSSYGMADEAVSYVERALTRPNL

Km (TvDAAO) | Molecule | Km [1] | kcat [1] | kcat/Km [1] | also measured
11000 µM | C[C@H](O)[C@@H](N)C(=O)O [D-Thr] |  |  |  | 
37000 µM | N[C@H](CO)C(=O)O [D-Ser] |  |  |  | 
370 µM | N[C@H](Cc1ccccc1)C(=O)O [D-Phe] |  |  |  | 
460 µM | CSCC[C@@H](N)C(=O)O [D-Met] |  |  |  | 
490 µM | N[C@H](Cc1c[nH]c2ccccc12)C(=O)O [D-Trp] |  |  |  | 
 | B1 | 1400 ± 300 µM | 68 ± 0.5 s⁻¹ | 50000 ± 9000 M⁻¹ s⁻¹ | 
 | B2 | 800 ± 200 µM | 65 ± 5 s⁻¹ | 79000 ± 15000 M⁻¹ s⁻¹ | 
 | B3 | 2900 ± 500 µM | 121 ± 15 s⁻¹ | 42000 ± 8000 M⁻¹ s⁻¹ | Km (purified protein [2]): 1400 µM; kcat (purified protein [2]): 41 s⁻¹
 | B4 | 1600 ± 300 µM | 106 ± 9 s⁻¹ | 66000 ± 12000 M⁻¹ s⁻¹ | 
 | B5 | 1900 ± 400 µM | 88 ± 10 s⁻¹ | 45000 ± 11000 M⁻¹ s⁻¹ | 
 | B6 | 1400 ± 400 µM | 26 ± 3 s⁻¹ | 18000 ± 5000 M⁻¹ s⁻¹ | Km (purified protein [3]): 14000 µM; kcat (purified protein [3]): 85 s⁻¹; Km (purified protein [4]): 17000 µM; kcat (purified protein [4]): 109 s⁻¹; Km (purified protein [5]): 23000 µM; kcat (purified protein [5]): 62 s⁻¹; Km (purified protein [6]): 400 µM; kcat (purified protein [6]): 29 s⁻¹
 | B7 | 1150 ± 80 µM | 25.5 ± 1.4 s⁻¹ | 22000 ± 2000 M⁻¹ s⁻¹ | 
 | B8 | 1900 ± 600 µM | 119 ± 7 s⁻¹ | 60000 ± 20000 M⁻¹ s⁻¹ | 

Molecule | Km (TvDAAO) | Km [1] | kcat [1] | kcat/Km [1] | also measured
NCCCC[C@@H](N)C(=O)O [D-Lys] | 29000 µM |  |  |  | 
N[C@H](Cc1ccc(O)cc1)C(=O)O [D-Tyr] | 450 µM |  |  |  | 
